Source: patent publication US20210139579A1 (published 2021)
Numbering of substitutions follows the chain as printed.

B1: XBR1-402 chimeric rabbit/human Fab (Fab, V domains shown)
VH: QEQQKESGGGLFKPTDTLTLTCTASGFDISSYYMSWVRQAPGNGLEWIGAIGISGNAYYASWAKSRSTITRNTNLNTVTLKMTSLTAADTATYFCARDHPTYGMDLWGPGTLVTVSS
VL: SYELTQLPSVSVSLGQTARITCEGNNIGSKAVHWYQQKPGLAPGLLIYDDDERPSGVPDRFSGSNSGDTATLTISGAQAGDEADYYCQVWDSSAYVFGGGTQLTVTG
B2: ERR1-403 chimeric rabbit/human Fab (Fab, V domains shown)
VH: QEQLKESGRGLVQPGGSLKLSCKASGFDFSGWYMTWVRQAPGKGLEWIGTIGTTKGRTYYASWVNGRFTISSDNAQNTVDLQMNSLTAADRATYFCVRGSDYFDLWGPGTLVTISS
VL: SYELTQLPSVSVSLGQTARITCGGNSIGSKAVNWYQQKPGLAPGLLIYDDDERPSGVPARFSGSNSGDTATLTISGAQAGDEADYYCQLWDSSAGAYVFGGGTQLTVTG
B3: ERR1-TOP43 chimeric rabbit/human Fab (Fab, V domains shown)
VH: QSLEESGGRLVTPGTPLTLTCTVSGFSLSSYWMSWVRQAPGKGLEWIGAIYGSGNTYYASWAKGRFTISKTSTTVDLKITSPTTEDTATYFCARDVHSTATDLWGPGTLVTISS
VL: B2 VL with S26N, D49N, A59D
B4: ERR1-301 chimeric rabbit/human Fab (Fab, V domains shown)
VH: QEQLEESGGGLVTPGGSLTLTCTASGFTISTYHMSWVRQAPGKGLEWIGSIYAGSGSTYYASWVNGRFTISSNTTQNTVSLQMNSLTVADTATYFCARDHPSYGMDLWGPGTLVTVSS
VL: B2 VL with A59D, G63A, G80E, G95V

Target: hFc-hROR1 (fusion protein of the extracellular domain of human ROR1 and the Fc domain of human IgG1) (human, UniProt P01857 99-330 = IgG part)
Sequence (P01857 other isoform, or with tags, fused parts or gaps): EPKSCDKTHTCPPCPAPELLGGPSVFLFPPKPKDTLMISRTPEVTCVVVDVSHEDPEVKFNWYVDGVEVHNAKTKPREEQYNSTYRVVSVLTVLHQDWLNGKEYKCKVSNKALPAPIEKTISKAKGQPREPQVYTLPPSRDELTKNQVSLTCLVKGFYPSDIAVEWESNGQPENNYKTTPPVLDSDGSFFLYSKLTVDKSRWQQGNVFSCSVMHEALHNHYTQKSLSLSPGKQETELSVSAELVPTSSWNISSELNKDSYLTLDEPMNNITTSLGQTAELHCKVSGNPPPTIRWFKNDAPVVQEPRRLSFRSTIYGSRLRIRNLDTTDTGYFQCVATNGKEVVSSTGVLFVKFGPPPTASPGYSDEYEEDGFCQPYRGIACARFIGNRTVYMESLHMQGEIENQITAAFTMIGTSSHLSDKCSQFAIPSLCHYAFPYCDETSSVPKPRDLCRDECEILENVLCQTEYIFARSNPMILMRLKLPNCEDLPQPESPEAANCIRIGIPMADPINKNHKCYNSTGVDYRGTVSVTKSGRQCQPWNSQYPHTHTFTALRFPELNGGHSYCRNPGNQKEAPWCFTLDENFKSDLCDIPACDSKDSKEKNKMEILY
Assay: SPR

Row | Binder | Kd
1 | B1 | 5.81 nM
2 | B2 | 41.6 nM
3 | B3 | 1.11 nM
4 | B4 | 118 nM
